Source: paper PMC10344781 (Nature Biotechnology, 2023)
Where a chain is given by its changes, count along the chain named.

B1: scFv2 displayed on yeast (scFv, V domains shown)
VH: VLLQQSGPELVKPGASVKIPCKASGYTFTDYEMDWVKQSHGKSLEWIGSINPNNGGTMYNQKFKGKATLTVDKSSSAAYMEVRSLTSEDTAVYYCARKPYYGMNAWFAYWGQGTLVTVSA
VL: IQVTQSSSSFSVSLGDRVTITCKASEDIYNRLAWYQQKPGNAPRLLISGATSLETGVPDRFSGSGSRKDYTLIITSLQTEDVATYYCQQYYALPLTFGAGTKLELK
notes: 25-D1.16 scFv (PDB 3CVH) changed at the nine randomised peptide-contact CDR residues; also called clone 2
B2: scFv19 displayed on yeast (scFv, V domains shown)
VH: B1 VH with E32Y, S49T, M58V, Y101S, M103H, N104P
VL: B1 VL with L93F
notes: 25-D1.16 scFv (PDB 3CVH) changed at the nine randomised peptide-contact CDR residues; also called clone 19
B3: scFv12 displayed on yeast (scFv, V domains shown)
VH: B1 VH with E32D, M58I, Y101R, M103F, N104H
VL: B1 VL with A92G, L93Y
notes: 25-D1.16 scFv (PDB 3CVH) changed at the nine randomised peptide-contact CDR residues; also called clone 12

Target: T1, single-chain mouse Trp2/H2-K^b (scpMHC), biotinylated (Mus musculus, H2-Kb, UniProt P01901;P01887, biotin on the biotinylation tag (BirA))
T1 construct: residues 180-188 of tyrosinase-related protein 2 (Trp2), mouse; linker, (G4S)3 or (G4S)4; beta2M; H2-K^b without the transmembrane domain; used as monomer, as streptavidin tetramer and on an SA chip; also called Trp2/H2-K^b tetramers; Trp2/H2-K^b monomer; source: Expi293, purified (Ni-NTA, Superdex 200)
Assay: flow cytometry on cells; yeast clones expressing TCRm scFv incubated with tenfold serially diluted target pMHC (monomer) for 1 h on ice, then streptavidin-AlexaFluor 647 for 15 min on ice
Details: one partner purified

binding result | Binder
binds | B1
binds | B2
binds | B3
